The record followed here is article PMC4479559.

In experiment [1] the target is Clostridium oremlandii methionine sulfoxide reductase A, Sec-to-Cys form (Clostridium oremlandii (strain OhILAs)). In words: non-reducing SDS-PAGE; time course, 84 μM MsrA with 0.2 mM free methionine sulfoxide; dimer ratios by ImageJ, fitted with Prism 5.
The target is the same in experiment [2]. In words: non-reducing SDS-PAGE; series of MsrA concentrations, 2 h with 0.2 mM free methionine sulfoxide; dimer ratios by ImageJ, fitted with Prism 5.

With “Clostridium oremlandii methionine sulfoxide reductase A, Sec-to-Cys form (enzyme)”, the D1/2 (reaction time to reach half Dmax) in experiment [1] came out at 5.8 min. In addition, in experiment [2], the D1/2 (concentration of MsrA to reach half Dmax) came out at 7.6 µM and the Dmax (maximal percent of dimer) was found to be 98%.
